Measured values from article doi:10.1101/2023.10.17.562808.

Experiments:
Details in all cases: none besides dye labels, binding temperature not given
PARP2 (mouse) [1] = assay: EMSA
PARP2 (mouse) [2] = assay: spFRET
PARP2 (mouse) [3] = assay: EMSA; remark: listed apart in the source

## NP nucleosome (603, 187 bp)
PARP2 (mouse) [1]
  K half: 40 nM
PARP2 (mouse) [2]
  K half: 19 nM
PARP2 (mouse) [3]
  K half: 40 nM
